# Measurements from PMC8430995.
# Molecular target: Akt WT (transfected), P31749
# Assay: co-immunoprecipitation (K8/K18 IP, Akt immunoblot, quantified)
# Details: chain shown with the change, BHK-21 cells transfected with Akt WT, parent: est. 1.0, read off a plot
# Chain of Akt WT (transfected), P31749 (P31749 whole entry): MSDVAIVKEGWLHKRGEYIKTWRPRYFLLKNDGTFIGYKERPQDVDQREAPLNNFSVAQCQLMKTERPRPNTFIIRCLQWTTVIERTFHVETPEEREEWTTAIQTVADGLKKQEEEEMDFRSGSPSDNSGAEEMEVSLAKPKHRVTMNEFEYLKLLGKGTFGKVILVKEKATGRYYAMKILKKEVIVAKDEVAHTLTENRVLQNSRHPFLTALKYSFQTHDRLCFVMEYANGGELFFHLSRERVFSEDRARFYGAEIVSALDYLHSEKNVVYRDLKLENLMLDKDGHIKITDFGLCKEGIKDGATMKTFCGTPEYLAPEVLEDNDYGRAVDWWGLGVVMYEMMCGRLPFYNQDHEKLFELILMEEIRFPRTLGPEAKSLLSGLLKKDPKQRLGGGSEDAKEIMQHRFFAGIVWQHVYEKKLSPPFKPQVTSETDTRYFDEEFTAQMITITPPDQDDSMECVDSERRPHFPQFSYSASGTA
binder,measurement,setting,value
"K8 WT/K18 WT (transfected), P05787;P05783 K8:G434S (protein) chain 1: MSIRVTQKSYKVSTSGPRAFSSRSYTSGPGSRISSSSFSRVGSSNFRGGLGGGYGGASGMGGITAVTVNQSLLSPLVLEVDPNIQAVRTQEKEQIKTLNNKFASFIDKVRFLEQQNKMLETKWSLLQQQKTARSNMDNMFESYINNLRRQLETLGQEKLKLEAELGNMQGLVEDFKNKYEDEINKRTEMENEFVLIKKDVDEAYMNKVELESRLEGLTDEINFLRQLYEEEIRELQSQISDTSVVLSMDNSRSLDMDSIIAEVKAQYEDIANRSRAEAESMYQIKYEELQSLAGKHGDDLRRTKTEISEMNRNISRLQAEIEGLKGQRASLEAAIADAEQRGELAIKDANAKLSELEAALQRAKQDMARQLREYQELMNVKLALDIEIATYRKLLEGEESRLESGMQNMSIHTKTTSGYAGGLSSAYGGLTSPSLSYSLGSSFGSGAGSSSFSRTSSSRAVVVKKIETRDGKLVSESSDVLPK chain 2: MSFTTRSTFSTNYRSLGSVQAPSYGARPVSSAASVYAGAGGSGSRISVSRSTSFRGGMGSGGLATGIAGGLAGMGGIQNEKETMQSLNDRLASYLDRVRSLETENRRLESKIREHLEKKGPQVRDWSHYFKIIEDLRAQIFANTVDNARIVLQIDNARLAADDFRVKYETELAMRQSVENDIHGLRKVIDDTNITRLQLETEIEALKEELLFMKKNHEEEVKGLQAQIASSGLTVEVDAPKSQDLAKIMADIRAQYDELARKNREELDKYWSQQIEESTTVVTTQSAEVGAAETTLTELRRTVQSLEIDLDSMRNLKASLENSLREVEARYALQMEQLNGILLHLESELAQTRAEGQRQAQEYEALLNIKVKLEAEIATYRRLLEDGEDFNLGDALDSSNSMQTIQKTTTRRIVDGKVVSETNDTKVLRH",ratio to parent,K18 WT and the K8 mutant,1.2
"K8 WT/K18 WT (transfected), P05787;P05783 K18:D238E; K18:D396E (protein) chain 1: MSIRVTQKSYKVSTSGPRAFSSRSYTSGPGSRISSSSFSRVGSSNFRGGLGGGYGGASGMGGITAVTVNQSLLSPLVLEVDPNIQAVRTQEKEQIKTLNNKFASFIDKVRFLEQQNKMLETKWSLLQQQKTARSNMDNMFESYINNLRRQLETLGQEKLKLEAELGNMQGLVEDFKNKYEDEINKRTEMENEFVLIKKDVDEAYMNKVELESRLEGLTDEINFLRQLYEEEIRELQSQISDTSVVLSMDNSRSLDMDSIIAEVKAQYEDIANRSRAEAESMYQIKYEELQSLAGKHGDDLRRTKTEISEMNRNISRLQAEIEGLKGQRASLEAAIADAEQRGELAIKDANAKLSELEAALQRAKQDMARQLREYQELMNVKLALDIEIATYRKLLEGEESRLESGMQNMSIHTKTTSGYAGGLSSAYGGLTSPGLSYSLGSSFGSGAGSSSFSRTSSSRAVVVKKIETRDGKLVSESSDVLPK chain 2: MSFTTRSTFSTNYRSLGSVQAPSYGARPVSSAASVYAGAGGSGSRISVSRSTSFRGGMGSGGLATGIAGGLAGMGGIQNEKETMQSLNDRLASYLDRVRSLETENRRLESKIREHLEKKGPQVRDWSHYFKIIEDLRAQIFANTVDNARIVLQIDNARLAADDFRVKYETELAMRQSVENDIHGLRKVIDDTNITRLQLETEIEALKEELLFMKKNHEEEVKGLQAQIASSGLTVEVEAPKSQDLAKIMADIRAQYDELARKNREELDKYWSQQIEESTTVVTTQSAEVGAAETTLTELRRTVQSLEIDLDSMRNLKASLENSLREVEARYALQMEQLNGILLHLESELAQTRAEGQRQAQEYEALLNIKVKLEAEIATYRRLLEDGEDFNLGDALESSNSMQTIQKTTTRRIVDGKVVSETNDTKVLRH",ratio to parent,K8 WT and the K18 mutant,1.2
"K8 WT/K18 WT (transfected), P05787;P05783 K8:G62C (protein) chain 1: MSIRVTQKSYKVSTSGPRAFSSRSYTSGPGSRISSSSFSRVGSSNFRGGLGGGYGGASGMGCITAVTVNQSLLSPLVLEVDPNIQAVRTQEKEQIKTLNNKFASFIDKVRFLEQQNKMLETKWSLLQQQKTARSNMDNMFESYINNLRRQLETLGQEKLKLEAELGNMQGLVEDFKNKYEDEINKRTEMENEFVLIKKDVDEAYMNKVELESRLEGLTDEINFLRQLYEEEIRELQSQISDTSVVLSMDNSRSLDMDSIIAEVKAQYEDIANRSRAEAESMYQIKYEELQSLAGKHGDDLRRTKTEISEMNRNISRLQAEIEGLKGQRASLEAAIADAEQRGELAIKDANAKLSELEAALQRAKQDMARQLREYQELMNVKLALDIEIATYRKLLEGEESRLESGMQNMSIHTKTTSGYAGGLSSAYGGLTSPGLSYSLGSSFGSGAGSSSFSRTSSSRAVVVKKIETRDGKLVSESSDVLPK chain 2: MSFTTRSTFSTNYRSLGSVQAPSYGARPVSSAASVYAGAGGSGSRISVSRSTSFRGGMGSGGLATGIAGGLAGMGGIQNEKETMQSLNDRLASYLDRVRSLETENRRLESKIREHLEKKGPQVRDWSHYFKIIEDLRAQIFANTVDNARIVLQIDNARLAADDFRVKYETELAMRQSVENDIHGLRKVIDDTNITRLQLETEIEALKEELLFMKKNHEEEVKGLQAQIASSGLTVEVDAPKSQDLAKIMADIRAQYDELARKNREELDKYWSQQIEESTTVVTTQSAEVGAAETTLTELRRTVQSLEIDLDSMRNLKASLENSLREVEARYALQMEQLNGILLHLESELAQTRAEGQRQAQEYEALLNIKVKLEAEIATYRRLLEDGEDFNLGDALDSSNSMQTIQKTTTRRIVDGKVVSETNDTKVLRH",ratio to parent,K18 WT and the K8 mutant,1.7
"K8 WT/K18 WT (transfected), P05787;P05783 K8:R302C (protein) chain 1: MSIRVTQKSYKVSTSGPRAFSSRSYTSGPGSRISSSSFSRVGSSNFRGGLGGGYGGASGMGGITAVTVNQSLLSPLVLEVDPNIQAVRTQEKEQIKTLNNKFASFIDKVRFLEQQNKMLETKWSLLQQQKTARSNMDNMFESYINNLRRQLETLGQEKLKLEAELGNMQGLVEDFKNKYEDEINKRTEMENEFVLIKKDVDEAYMNKVELESRLEGLTDEINFLRQLYEEEIRELQSQISDTSVVLSMDNSRSLDMDSIIAEVKAQYEDIANRSRAEAESMYQIKYEELQSLAGKHGDDLRCTKTEISEMNRNISRLQAEIEGLKGQRASLEAAIADAEQRGELAIKDANAKLSELEAALQRAKQDMARQLREYQELMNVKLALDIEIATYRKLLEGEESRLESGMQNMSIHTKTTSGYAGGLSSAYGGLTSPGLSYSLGSSFGSGAGSSSFSRTSSSRAVVVKKIETRDGKLVSESSDVLPK chain 2: MSFTTRSTFSTNYRSLGSVQAPSYGARPVSSAASVYAGAGGSGSRISVSRSTSFRGGMGSGGLATGIAGGLAGMGGIQNEKETMQSLNDRLASYLDRVRSLETENRRLESKIREHLEKKGPQVRDWSHYFKIIEDLRAQIFANTVDNARIVLQIDNARLAADDFRVKYETELAMRQSVENDIHGLRKVIDDTNITRLQLETEIEALKEELLFMKKNHEEEVKGLQAQIASSGLTVEVDAPKSQDLAKIMADIRAQYDELARKNREELDKYWSQQIEESTTVVTTQSAEVGAAETTLTELRRTVQSLEIDLDSMRNLKASLENSLREVEARYALQMEQLNGILLHLESELAQTRAEGQRQAQEYEALLNIKVKLEAEIATYRRLLEDGEDFNLGDALDSSNSMQTIQKTTTRRIVDGKVVSETNDTKVLRH",ratio to parent,K18 WT and the K8 mutant,1.8
